One block for each molecule: values may come before it. Ends that are not written are not given here.
Legend:
[1] = molecular target: binding of FAM19A5 protein to full-length ectodomain of the LRRC4B protein (amino acids 36-576 of SEQ ID NO: 2) (Homo sapiens, UniProt Q7Z5A7); experiment: Competitive inhibition assay, plate coated with full-length ectodomain of LRRC4B (amino acids 36-576); settings: for inhibition of interaction between FAM19A5 and the coated LRRC4B protein fragments (in words): statement covers both coats, LRRC4B (36-576) and LRRC4B (453-576); for inhibition of FAM19A5 binding to coated full-length LRRC4B ectodomain protein (in words): increasing concentrations, FAM19A5 5 ng/mL, 100 nM coat
Experimental: Next, to further assess the role that the binding domain of the LRRC4B protein has on the interaction between FAM19A5 protein and members of the LRRC4 protein family, a competitive inhibition assay was used to determine whether different LRRC4B deletion constructs from Example 2 could inhibit the binding of FAM19A5 to the full-length ectodomain of the LRRC4B protein (i.e., amino acids 36-576 of SEQ ID NO: 2; SEQ ID NO: 5). Briefly, 100 nM of the full-length ectodomain of the LRRC4B protein was used to coat a plate, and then recombinant FAM19A5 protein (5 ng/mL) was added to the plate in combination with the following LRRC4B deletion constructs (increasing concentrations): (1) LRRC4B (453-576) (i.e., construct #11 in Table 6); (2) LRRC4B (453-576) mutant (comprises alanine substitutions at positions 488 and 489 of SEQ ID NO: 2; SEQ ID NO: 16); (3) LRRC4B (484-576) (i.e., construct #12 in Table 6); (4) LRRC4B (482-576); (5) LRRC4B (482-497); and (6) LRRC4B (498-576). The plates were incubated at 37° C., and then, the amount of FAM19A5 bound to the coated LRRC4B ectodomain protein was measured using HRP-conjugated anti-FAM19A5 (1-65) antibody.
As described in Example 3, there appeared to be much similarity in the binding domains of the different members of the LRRC4 family. […] Then, recombinant FAM19A5 protein (5 ng/mL) was added in combination with one of the following: (i) LRRC4B (484-576) protein fragment, (ii) LRRC4B (453-576, AA) protein fragment, and (iii) synthetic FB-20 peptide. The plates were incubated at 37° C., and then, the amount of FAM19A5 protein bound to the coated LRRC4, LRRC4B, or LRRC4C proteins was measured using anti-FAM19A5 (1-65) antibody.
(§1) Next, to assess whether polypeptides comprising the binding domains of LRRC4 or LRRC4C proteins can have similar inhibitory effects on LRRC4B protein binding, the following synthetic peptides were constructed: (1) FBC4-23 (contains the binding domain of the LRRC4 protein, i.e., YSFFTTVTVETTE); and (2) FBC4C-23 (contains the binding domain of the LRRC4C protein, i.e., FSYFSTVTVETME). Then, the ability of the peptides to inhibit the binding of LRRC4 protein family members to FAM19A5 protein was assessed using a competitive inhibition assay. Briefly, plates were coated with 100 nM of either LRRC4B protein fragment #1 (amino acids 36-576 of SEQ ID NO: 2; SEQ ID NO: 5) or LRRC4B protein fragment #2 (amino acids 453-576 of SEQ ID NO: 2; SEQ ID NO: 7). Then, recombinant FAM19A5 protein (5 ng/ml for plates coated with LRRC4B fragment #1; and 1 ng/mL for plates coated with LRRC4B fragment #2) was added to the plates in combination with 20 nM of the FBC4-23, FBC4C-23, and FB-20 peptides. The plates were incubated at 37° C. and then, the amount of FAM19A5 protein bound to the coated LRRC4B protein fragments was assessed using HRP-conjugated anti-FAM19A5 (1-65) antibody.
Next, to determine the minimal sequence required to inhibit the interaction of FAM19A5 and members of the LRRC4 protein family, ten FB-20 peptide variants were constructed by serially deleting one or more amino acids from the N-terminus or C-terminus of the FB-20 peptide. Then, a competitive inhibition assay was used to assess the ability of the different FB-20 peptide variants to inhibit the interaction between FAM19A5 and LRRC4B protein. Again, plates were coated with 100 nM of either LRRC4B protein fragment #1 (amino acids 36-576 of SEQ ID NO: 2; SEQ ID NO: 5) or LRRC4B protein fragment #2 (amino acids 453-576 of SEQ ID NO: 2; SEQ ID NO: 7). Then, recombinant FAM19A5 protein (5 ng/ml for plates coated with LRRC4B fragment #1; and 1 ng/mL for plates coated with LRRC4B fragment #2) was added to the plates in combination with 20 nM of the different peptides described above. After incubating the plates at 37° C., the amount of FAM19A5 protein bound to the coated LRRC4B protein fragments was assessed using HRP-conjugated anti-FAM19A5 (1-65) antibody. […]

[2] = molecular target: binding of FAM19A5 protein to LRRC4B (amino acids 453-576)-hFc (Homo sapiens, UniProt Q7Z5A7); experiment: Competitive inhibition assay, plate coated with LRRC4B (amino acids 453-576)-hFc, peptides at 20 nM
Excerpt: as §1
Next, to determine the minimal sequence required to inhibit the interaction of FAM19A5 and members of the LRRC4 protein family, ten FB-20 peptide variants were constructed by serially deleting one or more amino acids from the N-terminus or C-terminus of the FB-20 peptide. Then, a competitive inhibition assay was used to assess the ability of the different FB-20 peptide variants to inhibit the interaction between FAM19A5 and LRRC4B protein. Again, plates were coated with 100 nM of either LRRC4B protein fragment #1 (amino acids 36-576 of SEQ ID NO: 2; SEQ ID NO: 5) or LRRC4B protein fragment #2 (amino acids 453-576 of SEQ ID NO: 2; SEQ ID NO: 7). Then, recombinant FAM19A5 protein (5 ng/ml for plates coated with LRRC4B fragment #1; and 1 ng/mL for plates coated with LRRC4B fragment #2) was added to the plates in combination with 20 nM of the different peptides described above. After incubating the plates at 37° C., the amount of FAM19A5 protein bound to the coated LRRC4B protein fragments was assessed using HRP-conjugated anti-FAM19A5 (1-65) antibody.
To identify the critical amino acid residues, multiple FB-20 peptide mutants were constructed, in which the individual residues of the core binding domain (i.e., YTYFTTVTVETLE; SEQ ID NO: 15) were substituted with alanine (A) or asparagine (N). Then, the ability of these FB-20 peptide mutants to inhibit the interaction between LRRC4B and FAM19A5 proteins was assessed, as described in Examples 3 and 4.

[3] = Table 9, deletion variants, 20 nM peptide, FAM19A5 5 ng/ml
[4] = Table 9, deletion variants, 20 nM peptide, FAM19A5 1 ng/mL
[5] = Table 10, alanine/asparagine mutants
[6] = Table 8, 20 nM peptide, FAM19A5 5 ng/ml
[7] = Table 8, 20 nM peptide, FAM19A5 1 ng/mL

Chain of binding of FAM19A5 protein to LRRC4B (amino acids 453-576)-hFc (Q7Z5A7 44-132): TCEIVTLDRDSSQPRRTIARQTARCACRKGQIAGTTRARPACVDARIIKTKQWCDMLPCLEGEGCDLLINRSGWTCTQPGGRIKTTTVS
Chain of binding of FAM19A5 protein to full-length ectodomain of the LRRC4B protein (amino acids 36-576 of SEQ ID NO: 2) (Q7Z5A7 44-132): as above

Molecule: GYTNFTTVTVETLETQPGEE [FB-20[N3]]
Inhibition rate (%) LRRC4B (amino acids 36-576)-hFc [1, 5]: −5.0%
Inhibition rate (%) LRRC4B (amino acids 453-576)-hFc [2, 5]: 4.0%

Molecule: GATYFTTVTVETLETQPGEE [FB-20[A1]]
Inhibition rate (%) LRRC4B (amino acids 36-576)-hFc [1, 5]: 17.2%
Inhibition rate (%) LRRC4B (amino acids 453-576)-hFc [2, 5]: 3.6%

Molecule: GYTYFTTVTVETAETQPGEE [FB-20[A12]]
Inhibition rate (%) LRRC4B (amino acids 36-576)-hFc [1, 5]: 73.0%
Inhibition rate (%) LRRC4B (amino acids 453-576)-hFc [2, 5]: 56.2%

Molecule: GYTYFTTNTVETLETQPGEE [FB-20[N7]]
Inhibition rate (%) LRRC4B (amino acids 36-576)-hFc [1, 5]: 24.5%
Inhibition rate (%) LRRC4B (amino acids 453-576)-hFc [2, 5]: 8.3%

Molecule: GYTYFTTVTVEALETQPGEE [FB-20[A11]]
Inhibition rate (%) LRRC4B (amino acids 36-576)-hFc [1, 5]: 73.4%
Inhibition rate (%) LRRC4B (amino acids 453-576)-hFc [2, 5]: 50.3%

Molecule: GYTYFTTVTAETLETQPGEE [FB-20[A9]]
Inhibition rate (%) LRRC4B (amino acids 36-576)-hFc [1, 5]: 21.5%
Inhibition rate (%) LRRC4B (amino acids 453-576)-hFc [2, 5]: 3.8%

Molecule: GYTYFTTVNVETLETQPGEE [FB-20[N8]]
Inhibition rate (%) LRRC4B (amino acids 36-576)-hFc [1, 5]: 2.9%
Inhibition rate (%) LRRC4B (amino acids 453-576)-hFc [2, 5]: −2.4%

Molecule: GYTYFTNVTVETLETQPGEE [FB-20[N6]]
Inhibition rate (%) LRRC4B (amino acids 36-576)-hFc [1, 5]: −11.4%
Inhibition rate (%) LRRC4B (amino acids 453-576)-hFc [2, 5]: −0.4%

Molecule: GYTYFTAVTVETLETQPGEE [FB-20[A6]]
Inhibition rate (%) LRRC4B (amino acids 36-576)-hFc [1, 5]: 17.9%
Inhibition rate (%) LRRC4B (amino acids 453-576)-hFc [2, 5]: 11.0%

Molecule: GYTYFATVTVETLETQPGEE [FB-20[A5]]
Inhibition rate (%) LRRC4B (amino acids 36-576)-hFc [1, 5]: 53.4%
Inhibition rate (%) LRRC4B (amino acids 453-576)-hFc [2, 5]: 22.2%

Molecule: GYTYATTVTVETLETQPGEE [FB-20[A4]]
Inhibition rate (%) LRRC4B (amino acids 36-576)-hFc [1, 5]: 2.7%
Inhibition rate (%) LRRC4B (amino acids 453-576)-hFc [2, 5]: 1.5%

Molecule: GYTYNTTVTVETLETQPGEE [FB-20[N4]]
Inhibition rate (%) LRRC4B (amino acids 36-576)-hFc [1, 5]: −1.3%
Inhibition rate (%) LRRC4B (amino acids 453-576)-hFc [2, 5]: 2.5%

Molecule: GYTYFTTVTVNTLETQPGEE [FB-20[N10]]
Inhibition rate (%) LRRC4B (amino acids 36-576)-hFc [1, 5]: 27.0%
Inhibition rate (%) LRRC4B (amino acids 453-576)-hFc [2, 5]: 10.8%

Molecule: GYTYFTTVAVETLETQPGEE [FB-20[A8]]
Inhibition rate (%) LRRC4B (amino acids 36-576)-hFc [1, 5]: 3.9%
Inhibition rate (%) LRRC4B (amino acids 453-576)-hFc [2, 5]: −0.4%

Further lines, results first:

Inhibition rate (%) LRRC4B (amino acids 36-576)-hFc [1, 3]: 62.0%
Inhibition rate (%) LRRC4B (amino acids 453-576)-hFc [2, 4]: 21.9%
Molecule: KNYTYFTTVTVENKETQ [FB-m10dC]

inhibition of interaction between FAM19A5 and the coated LRRC4B protein fragments (in words) ([1]; 20 nM peptide): failed to significantly inhibit
Inhibition rate (%) LRRC4B (amino acids 36-576)-hFc [1, 3]: 7.7%
Inhibition rate (%) LRRC4B (amino acids 453-576)-hFc [2, 4]: 0.0%
Molecule: KNTYFTTVTVETNKETQ [FB-m10dN]

inhibition of interaction between FAM19A5 and the coated LRRC4B protein fragments (in words) ([1]; 20 nM peptide): failed to significantly inhibit
Inhibition rate (%) LRRC4B (amino acids 36-576)-hFc [1, 3]: 3.3%
Inhibition rate (%) LRRC4B (amino acids 453-576)-hFc [2, 4]: −1.1%
Molecule: KNFTTVTVETNKETQ [FB-m8dN]

inhibition of interaction between FAM19A5 and the coated LRRC4B protein fragments (in words) ([1]; 20 nM peptide): failed to significantly inhibit
Inhibition rate (%) LRRC4B (amino acids 36-576)-hFc [1, 3]: 5.1%
Inhibition rate (%) LRRC4B (amino acids 453-576)-hFc [2, 4]: −0.9%
Molecule: KNYTYFTTVTNKETQ [FB-m8dC]

Inhibition rate (%) LRRC4B (amino acids 36-576)-hFc [1, 5]: 74.1%
Inhibition rate (%) LRRC4B (amino acids 453-576)-hFc [2, 5]: 55.6%
Molecule: GYTYFTTVTVENLETQPGEE [FB-20[N11]]

inhibition of interaction between FAM19A5 and the coated LRRC4B protein fragments (in words) ([1]; 20 nM peptide): substantially inhibited the interaction
Inhibition rate (%) LRRC4B (amino acids 36-576)-hFc [1, 3]: 65.0%
Inhibition rate (%) LRRC4B (amino acids 453-576)-hFc [2, 4]: 30.4%
Molecule: KNYTYFTTVTVETNKETQ [FB-m11dC]

inhibition of interaction between FAM19A5 and the coated LRRC4B protein fragments (in words) ([1]; 20 nM peptide): significantly decreased the interaction
Inhibition rate (%) LRRC4B (amino acids 36-576)-hFc [1, 6]: 65.7%
Inhibition rate (%) LRRC4B (amino acids 453-576)-hFc [2, 7]: 40.4%
Molecule: NFSYFSTVTVETMEPSQDERTTR [FBC4C-23]

inhibition of interaction between FAM19A5 and the coated LRRC4B protein fragments (in words) ([1]; 20 nM peptide): failed to significantly inhibit
Inhibition rate (%) LRRC4B (amino acids 36-576)-hFc [1, 3]: 4.4%
Inhibition rate (%) LRRC4B (amino acids 453-576)-hFc [2, 4]: 0.4%
Molecule: KNYTYFTTVNKETQ [FB-m7dC]

inhibition of interaction between FAM19A5 and the coated LRRC4B protein fragments (in words) ([1]; 20 nM peptide): failed to significantly inhibit
Inhibition rate (%) LRRC4B (amino acids 36-576)-hFc [1, 3]: 14.9%
Inhibition rate (%) LRRC4B (amino acids 453-576)-hFc [2, 4]: 5.5%
Molecule: KNYTYFTTNKETQ [FB-m6dC]

inhibition of interaction between FAM19A5 and the coated LRRC4B protein fragments (in words) ([1]; 20 nM peptide): significantly decreased the interaction
Inhibition rate (%) LRRC4B (amino acids 36-576)-hFc [1, 6]: 64.1%
Inhibition rate (%) LRRC4B (amino acids 453-576)-hFc [2, 7]: 40.4%
Molecule: NYSFFTTVTVETTEISPEDTTRK [FBC4-23]

inhibition of FAM19A5 binding to coated full-length LRRC4B ectodomain protein (in words) [1]: also able to inhibit the interaction
Molecule: LRRC4B (482-497): LRRC4B ectodomain fragment, amino acids 482-497 of SEQ ID NO: 2 (GGYTYFTTVTVETLET; also: dimerising Fc or GST fusion left off)

inhibition of FAM19A5 binding to coated full-length LRRC4B ectodomain protein (in words) [1]: also able to inhibit the interaction
B1: LRRC4B (482-576): LRRC4B ectodomain fragment, amino acids 482-576 of SEQ ID NO: 2 (protein)
chain: GGYTYFTTVTVETLETQPGEEALQPRGTEKEPPGPTTDGVWGGGRPGDAAGPASSSTTAPAPRSSRPTEKAFTVPITDVTENALKDLDDVMKTTK

— US20240238445A1, “INHIBITORS AND USES THEREOF” (NEURACLE SCIENCE CO., LTD., priority 2021, published 2024)
